Data reported in article PMC2994726 (PLoS ONE, 2010).
Positions count from the first letter of the chain named.

Experiments:
Assay in all cases: radioligand binding; whole-cell heterologous competition on transfected COS-7 cells: 1 nM 3H-Ang II tracer and increasing unlabeled SII Ang II, 3 h at 4°C; pKi calculated from Ang II KD values of experiments run in parallel
Conditions in all cases: one partner purified
[1] = target: T1, FLAG-tagged rat AT1a receptor D74N truncated after serine 331 (D74N 331Δ) (rat, UniProt P25095 1-331, D74N)
T1 construct: source: COS-7, transiently transfected, on whole cells; not shown: FLAG, N-terminal, kept
T1 sequence (looked up): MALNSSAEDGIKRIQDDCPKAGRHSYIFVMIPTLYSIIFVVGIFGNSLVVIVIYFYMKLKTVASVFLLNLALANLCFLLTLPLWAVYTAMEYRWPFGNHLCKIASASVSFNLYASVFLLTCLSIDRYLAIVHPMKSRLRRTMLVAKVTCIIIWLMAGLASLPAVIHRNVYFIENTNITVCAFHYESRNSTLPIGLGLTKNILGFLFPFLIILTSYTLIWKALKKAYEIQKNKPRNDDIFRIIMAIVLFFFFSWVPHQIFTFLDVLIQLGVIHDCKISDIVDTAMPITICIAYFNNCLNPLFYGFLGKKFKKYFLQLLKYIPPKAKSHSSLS

[2] = target: T2, FLAG-tagged rat AT1a receptor N298A, full length (rat, UniProt P25095 1-359, N298A)
T2 construct: Angiotensin II type 1a receptor (AT1aR), rat, full length; also called N298A (7.49); source: COS-7, transiently transfected, on whole cells; not shown: FLAG, N-terminal, kept
T2 sequence (looked up): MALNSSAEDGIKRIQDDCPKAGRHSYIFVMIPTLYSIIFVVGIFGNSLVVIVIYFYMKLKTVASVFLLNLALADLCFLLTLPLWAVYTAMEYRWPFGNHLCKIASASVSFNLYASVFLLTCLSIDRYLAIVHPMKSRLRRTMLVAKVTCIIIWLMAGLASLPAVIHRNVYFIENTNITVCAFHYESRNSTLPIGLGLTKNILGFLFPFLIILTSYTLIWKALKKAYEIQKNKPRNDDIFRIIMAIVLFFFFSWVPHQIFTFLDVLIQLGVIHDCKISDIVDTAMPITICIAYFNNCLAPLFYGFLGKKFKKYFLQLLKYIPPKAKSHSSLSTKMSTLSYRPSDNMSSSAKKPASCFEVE

[3] = target: T3, FLAG-tagged rat AT1a receptor D74N, full length (rat, UniProt P25095 1-359, D74N)
T3 construct: Angiotensin II type 1a receptor (AT1aR), rat, full length; also called D74N (2.50); source: COS-7, transiently transfected, on whole cells; not shown: FLAG, N-terminal, kept
T3 sequence (looked up): T2 sequence (looked up) with D74N, A298N

[4] = target: T4, FLAG-tagged rat AT1a receptor N298A truncated after serine 331 (N298A 331Δ) (rat, UniProt P25095 1-331, N298A)
T4 construct: source: COS-7, transiently transfected, on whole cells; not shown: FLAG, N-terminal, kept
T4 sequence (looked up): T1 sequence (looked up) with N74D, N298A

With GRVIIHPI (sarcosine at position 1 (Sar1)) [Sar1-Ile4-Ile8 (SII) Ang II] the pKi [1] was 6.8, the pKi [2] was 6.2 and the pKi [3] was 6.6. For the same binder, the pKi [4] was 6.2.
